Experimental data: paper PMC7898697

How the values were obtained:
Experiment in all cases: BLI
[1] = target: triazole-linked ^triazole42Ub^ADPr (4), biotinylated (UniProt P0CG48)
[2] = target: triazole-linked ^triazole42Ub^Pr (6), biotinylated (UniProt P0CG48)
[3] = target: triazole-linked ^triazole42Ub^me-ADPr (5), biotinylated (UniProt P0CG48)
[4] = target: triazole-linked ^triazole72Ub^ADPr, biotinylated (UniProt P0CG48)
[5] = target: unmodified ubiquitin, biotinylated (biotin-Ub) (UniProt P0CG48)
[6] = target: natively linked ^Arg42Ub^ADPr, biotinylated (UniProt P0CG48)

Substance | Kd [1] | fold reduction of affinity against 4 and 5 [2] | Kd [3] | Kd [4] | fold reduction of affinity against 4 and 5 [5] | Kd [6] | Kd [5]
DupA-H67A lacking the GST tag (from UniProt Q5ZTK7 1-301) (enzyme) | 2.2 µM | > 15 fold | 1.2 µM | 9.3 µM | > 15 fold |  | 
glutathione S-transferase (GST)-tagged DupA-H67A (from UniProt Q5ZTK7 1-301) (enzyme) | 0.0112 µM |  | 0.0106 µM |  |  | 0.0057 µM | 0.0545 µM
